“And” between values parts separate entries of the source, which are not always exact repeats. Equal entries are not always repeated.
How the values were obtained:
[1] = system: CD4 T cells, CD8 T cells; assay: Single-dose PK/PD study in mice: CD4 and CD8 T cells in blood; type: in vivo, C57BL/6 mice; conditions: single SC 0.3 mg/kg
From the text: (§1) Following administration, blood and spleen samples are collected at days 1-7 and day 10 post administration. More particularly, at each time point, blood and spleen samples are collected; samples are pooled and assessed for pharmacodynamic analysis of drug action on lymphocyte cell populations by flow cytometry (see e.g. Example 5), expressed as a fold change relative to vehicle control. In addition to changes in cell numbers, functional markers and markers of activity are quantified. Finally, plasma drug concentration is also assessed.

[2] = system: Balb/c mice (KLH DTH model); assay: Antigen dependent, T cell-mediated DTH model with KLH rechallenge; type: in vivo
Procedure: To develop the DTH model, Balb/c mice are sensitized with a subcutaneous administration of a model antigen keyhole limpet hemocyanin (KLH) emulsified in complete and incomplete Freund's adjuvant. […] Inflamed ears are subjected to immunohistochemistry (IHC) to quantify percent of FoxP3+ Treg cells post KLH challenge. The specificity of response is assessed after an additional 3-4 weeks with no treatment by either KLH rechallenge or conducting sensitization and challenge with an unrelated antigen ovalbumin (OVA). […] Post ten days of 2nd sensitization, mice are challenged with OVA eight times orally, every alternative day. […] Severity of allergic response is assessed by clinical scoring within 30-45 min of post 8th challenge. Further, serum mast cell protease 1 (MCPT 1) and OVA specific IgE titers are quantified. The percent Treg is determined by flow cytometry in peripheral blood and in spleen.

[3] = system: cGVHD model; assay: cGVHD model, repeat administration; type: in vivo
[4] = Single dose pharmacokinetics in monkeys (IV and SC); type: in vivo, Cynomolgus Monkeys
[5] = system: NK cells; assay: Single-dose PK/PD study in mice: NK cells; type: in vivo, C57BL/6 mice; conditions: single SC 0.3 mg/kg (highest dose), relative to vehicle control
From the text: as §1

[6] = Single dose pharmacokinetics in rats (IV and SC, LS-2016-2033); type: in vivo, Sprague-Dawley Rats
[7] = biological target: T1, human IL-2Rβ (Homo sapiens, UniProt P14784); assay: Affinity to the IL-2 receptor by surface plasmon resonance; type: binding; conditions: SPR
T1 sequence (P14784 27-551): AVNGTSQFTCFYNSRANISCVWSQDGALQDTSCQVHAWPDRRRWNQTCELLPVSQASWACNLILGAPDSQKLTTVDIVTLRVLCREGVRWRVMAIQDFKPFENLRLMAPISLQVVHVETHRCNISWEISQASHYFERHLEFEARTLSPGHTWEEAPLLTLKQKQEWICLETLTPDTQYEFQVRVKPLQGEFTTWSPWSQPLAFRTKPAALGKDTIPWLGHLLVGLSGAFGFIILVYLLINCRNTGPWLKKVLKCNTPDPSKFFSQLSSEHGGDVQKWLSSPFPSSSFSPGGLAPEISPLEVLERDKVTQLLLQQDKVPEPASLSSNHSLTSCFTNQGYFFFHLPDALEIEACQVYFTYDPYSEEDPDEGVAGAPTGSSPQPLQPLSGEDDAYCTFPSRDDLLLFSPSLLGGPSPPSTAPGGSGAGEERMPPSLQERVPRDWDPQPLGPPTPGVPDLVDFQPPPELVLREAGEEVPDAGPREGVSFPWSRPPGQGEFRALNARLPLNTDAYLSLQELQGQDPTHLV
Procedure: Impaired IL-2 production and regulatory T cell dysfunctions have been implicated as an immunological mechanism in multiple autoimmune diseases. While low-dose IL-2 can be used to stimulate Tregs for clinical benefit, poor pharmacokinetics necessitates daily delivery, adverse events are dose-limiting, and Treg increases are modest and short-lived. […] The affinity to the IL-2 receptor is assessed by surface plasmon resonance. Activity in human PBMC can be measured by pSTAT5 induction in multiple lymphocyte populations using flow cytometry and time-of-flight mass cytometry (CyToF). In vivo activity after subcutaneous administration in C57BL/6 mice or cynomolgus monkey is measured by changes in lymphocyte numbers and activation by flow cytometry. Ex vivo Treg function is determined by the inhibition of Tcon proliferation by isolated splenic Treg. Efficacy is assessed in a model of systemic lupus erythematosus (SLE) using MRL/MpJ-Faslpr mice. […] In mice, a single administration leads to sustained Treg mobilization for 7-10 days in blood and spleen without Tcon activation, an effect concomitant with induction of Treg activation markers and increased ex vivo suppressive capacity. […] Finally, an RUR20kD-IL-2 composition is efficacious in mouse models of SLE.

[8] = cynomolgus monkeys, single IV 0.025 mg/kg, mean of male and female
[9] = cynomolgus monkeys, single SC 0.025 mg/kg, mean of male and female
[10] = Sprague-Dawley rats, single IV 0.01 mg/kg, plasma, mean ± SE
[11] = Sprague-Dawley rats, single IV 0.1 mg/kg, plasma, mean ± SE
[12] = Sprague-Dawley rats, single IV 1 mg/kg, plasma, mean ± SE
[13] = Sprague-Dawley rats, single SC 0.01 mg/kg, plasma, mean ± SE
[14] = Sprague-Dawley rats, single SC 0.1 mg/kg, plasma, mean ± SE
[15] = Sprague-Dawley rats, single SC 1 mg/kg, plasma, mean ± SE

(1,3-bis(methoxypoly(ethylene glycol)10kDcarbamoyl)-2-propanoxy)-4-butanamide)interleukin-2) [RUR20kD-IL-2]
changes to CD4 T cells [1]: modest | changes to CD8 T cells [1]: slight decreases | inflammatory response to KLH rechallenge ([2]; SC 0.003-0.3 mg/kg q3d, day 0 through day 8): suppressed the inflammatory response to KLH rechallenge in a dose dependent manner | FoxP3+ Treg cells in inflamed ears (IHC) ([2]; post KLH challenge): significant infiltration of FoxP3+ Treg cells | durability and specificity of suppressive effect on inflammation ([2]; re-challenge post 3-4 weeks without further administration, same and unrelated antigen (OVA)): durable and antigen-specific | Tregs and germinal center B cells in spleen [3]: increases Tregs and decreases germinal center B cells in spleen | lung dysfunction [3]: reverses lung dysfunction | AUCinf [4, 8]: 100000 ng·h/mL | AUClast [4, 8]: 71200 ng·h/mL | Half-life [4, 8]: 310 h | MRTinf [4, 8]: 403 h | Vss [4, 8]: 0.1 L/kg | CL ([4]; cynomolgus monkeys, single IV 0.025 mg/kg, mean of male and female, 0.025 mg/kg): 5.88 mL/day/kg and 6 mL/day/kg | AUCinf [4, 9]: 86000 ng·h/mL | AUClast [4, 9]: 65400 ng·h/mL | Cmax [4, 9]: 250 ng/mL | Half-life [4, 9]: 250 h | MRTinf [4, 9]: 360 h | Vss relative to species-specific plasma volume ([4]; monkeys): 2-4 fold | half-lives ([4]; monkeys, intravenous or subcutaneous dosing, range): 10.4 to 12.9 days | increase in NK cells [5]: less than 2 fold | AUCinf [6, 10]: 17800 ± 1000 ng·h/mL | AUClast [6, 10]: 17800 ± 900 ng·h/mL | CL [6, 10]: 13.4 ± 0.72 mL/day/kg | Half-life [6, 10]: 30 ± 3.84 h | MRTinf [6, 10]: 44.9 ± 5.04 h | Vss [6, 10]: 0.0251 L/kg | AUCinf [6, 11]: 120000 ± 8000 ng·h/mL | AUClast [6, 11]: 120000 ± 8000 ng·h/mL | CL [6, 11]: 20.2 ± 1.4 mL/day/kg | Half-life [6, 11]: 40.1 ± 0.24 h | MRTinf [6, 11]: 52.3 ± 0.96 h | Vss [6, 11]: 0.0441 ± 0.0035 L/kg | AUCinf [6, 12]: 877000 ± 39000 ng·h/mL | AUClast [6, 12]: 870000 ± 35000 ng·h/mL | CL [6, 12]: 27.4 ± 1.2 mL/day/kg | Half-life [6, 12]: 37.4 ± 5.28 h | MRTinf [6, 12]: 45.6 ± 3.84 h | Vss [6, 12]: 0.0526 L/kg | Absolute Bioavailability ([6]; Sprague-Dawley rats, single SC 0.01 mg/kg): 40.2% | AUCinf [6, 13]: 7160 ± 530 ng·h/mL | AUClast [6, 13]: 7120 ± 510 ng·h/mL | Cmax [6, 13]: 95 ± 6 ng/mL | Half-life [6, 13]: 32.4 ± 1.4 h | MRTinf [6, 13]: 64.8 ± 1.4 h | tmax [6, 13]: 31.9 ± 7.92 h | Absolute Bioavailability ([6]; Sprague-Dawley rats, single SC 0.1 mg/kg): 29.8% | AUCinf [6, 14]: 35700 ± 5100 ng·h/mL | AUClast [6, 14]: 35500 ± 5100 ng·h/mL | Cmax [6, 14]: 380 ± 40 ng/mL | Half-life [6, 14]: 46.1 ± 1.9 h | MRTinf [6, 14]: 82.1 ± 6.72 h | tmax [6, 14]: 48 ± 0 h | Absolute Bioavailability ([6]; Sprague-Dawley rats, single SC 1 mg/kg): 46.0% | AUCinf [6, 15]: 404000 ± 79000 ng·h/mL | AUClast [6, 15]: 398000 ± 74000 ng·h/mL | Cmax [6, 15]: 4860 ± 930 ng/mL | Half-life [6, 15]: 30.5 ± 7.68 h | MRTinf [6, 15]: 67.7 ± 3.84 h | tmax [6, 15]: 55.2 ± 7.92 h | Vss relative to species-specific plasma volume ([6]; rats): 1-2 fold | Bioavailability ([6]; rats, SC, range over doses): 29.8-46.0% | tmax ([6]; rats, SC, range over doses): 24 to 55.2 h | half-lives ([6]; rats, intravenous or subcutaneous dosing, range): 1.25 to 2.44 days | Plasma clearance (CL) ([6]; rats, range over doses): 13.4 to 27.4 mL/day/kg | affinity for human IL-2Rβ relative to IL-2Ra and IL-2Rαβ complexes [7]: greatly attenuated affinity
